For the test, the target named is humanized anti-human IL-6 receptor monoclonal IgG antibody MRA (tocilizumab), untreated. In words: dot blot of untreated MRA on nitrocellulose (1.5 to 100 ng per spot), biotinylated peptide with HRP-conjugated streptavidin.

On to Fc-III peptide, for which the detection limit was found to be 6 ng/spot.

These data come from patent publication US20100297606A1.
